Laboratory results published in patent US20250171543A1 (TAIZHOU ENZE MEDICAL CENTER GROUP, published 2025).

Columns and labels:
[1] = molecular target: T1, immunogen peptide QTDRMNLQTLRGYYNQSEAS (positions 72-91 in the heavy chain α1 domain of the HLA-G molecule) (human); test: ELISA on coated peptide, logistic fit, affinity constant = 150000 x dilution factor / antibody concentration
T1 construct: Synthetic peptide, coated on the ELISA plate at 2 µg/ml; also called antigen
T1 peptide: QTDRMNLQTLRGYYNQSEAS
Method: (§1) The antigen (SEQ No.19 [sequence]) was diluted with coating solution to a final concentration of 2 μg/ml, 10 μL/well, overnight at 4° C.; then washed twice with the washing solution; blocked with the blocking solution at 200 μL/well, incubated at 37° C. for 2 hours; then washed once with the washing solution. The purified antibody was diluted gradiently with PBS by 2-fold starting from 200-fold, using PBS as the blank control, both 100 μL/well, incubated at 37° C. for 1 hour; and then washed 3 times with the washing solution. The secondary antibody diluted by 20,000-fold with PBS was added at 100 L/well, and incubated in a 37° C. incubator for 1 hour; taken out and washed 3 times with the washing solution. Then color development was performed with the developing solution at 100 μL/well for 5-15 minutes. Then 50 μL of stop solution was added, and the absorbance was measured at dual wavelengths (450, 630), and a plot was drawn for analysis.

HLA-G7 = molecular target: T2, HLA-G7 (human, UniProt P17693-7 25-116); test: immunoblot of standard proteins, antibody 1.0 µg/ml
T2 construct: also called HLA-G isoform standard protein HLA-G7; K562-HLA-G7
Method: After SDS-PAGE electrophoresis and transferred to PVDF membrane, the HLA-G isoform standard proteins HLA-G1, HLA-G2, HLA-G3, HLA-G4, HLA-G5, HLA-G6, HLA-G7 and HLA-G molecular standard proteins lacking al domain were blocked with 5% skimmed milk powder at room temperature for 4 hours, and washed with 0.2% TBS (Tween-20 PBS).

HLA-G5 = molecular target: T3, HLA-G5 (human, UniProt P17693-5 25-319); test: intracellular flow cytometry, FITC-labeled antibody on permeabilised K562-HLA-G5 cells
T3 construct: also called HLA-G isoform standard protein HLA-G5; K562-HLA-G5
Method: (§2) The cell cultures expressing the K562 (blank control), K562-HLA-G1, K562-HLA-G2, K562-HLA-G3, K562-HLA-G4, K562-HLA-G5, K562-HLA-G6 and K562-HLA-G7 in the logarithmic growth phase were used. The detection was conducted by intracellular flow cytometry.
(§3) Detection of intracellular molecule expression by flow cytometry: The cell cultures of K562, K562-HLA-G1, K562-HLA-G2, K562-HLA-G3, K562-HLA-G4, K562-HLA-G5, K562-HLA-G6, K562-HLA-G7 were collected in test tubes, centrifuged and washed twice with 2% BSA/PBS (250 g), then 250 μL of cell membrane-breaking agent (BD Cytofix/Cytoperm™) was added, fully mixed, and placed in the refrigerator at 4° C. for 20 minutes. Then 1 ml of BD Perm/Wash™ was added to centrifuge and wash twice (250 g).

HLA-G4 = molecular target: T4, HLA-G4 (human, UniProt P17693-4 25-246); test: intracellular flow cytometry, FITC-labeled antibody on permeabilised K562-HLA-G4 cells
T4 construct: also called HLA-G isoform standard protein HLA-G4; K562-HLA-G4
Method: as §2, §3

HLA-G3 = molecular target: T5, HLA-G3 (human, UniProt P17693-3 25-154); test: intracellular flow cytometry, FITC-labeled antibody on permeabilised K562-HLA-G3 cells
T5 construct: also called HLA-G isoform standard protein HLA-G3; K562-HLA-G3
Method: as §2, §3

HLA-G2 = molecular target: T6, HLA-G2 (human, UniProt P17693-2 25-246); test: intracellular flow cytometry, FITC-labeled antibody on permeabilised K562-HLA-G2 cells
T6 construct: also called HLA-G isoform standard protein HLA-G2; K562-HLA-G2
Method: as §2, §3

[2] = molecular target: T1, immunogen peptide QTDRMNLQTLRGYYNQSEAS …; test: ELISA on coated peptide, 2-fold dilution series
Method: as §1

HLA-G6 = molecular target: T7, HLA-G6 (human, UniProt P17693-6 25-227); test: intracellular flow cytometry, FITC-labeled antibody on permeabilised K562-HLA-G6 cells
T7 construct: also called HLA-G isoform standard protein HLA-G6; K562-HLA-G6
Method: as §2, §3

binding result (HLA-G7): binds
binding result (HLA-G5): binds
binding result (HLA-G4): binds
binding result (HLA-G3): binds
binding result (HLA-G2): binds
binding result (HLA-G6): binds
B1: monoclonal antibody YWHG-1 against HLA-G molecule (antibody, V domains shown)
VH: QLQESGTVLVRPGASVKLSCKASGYIFTSYWINWVKQRPGQGLEWIGNIYPSDSYTNFNQKFEDKATLTVDTSSSTAYMQFSSPTSEDSAVYYCTRFGYPFDYWGQGTTLTVSS
VL: DIVITQDELSLTVSLGDQASISCRTSQSFVHSNGNIYLEWFLQKPGQSPKLLIYKVSSRFSGVPDRFSGSGSGTDFTLKISRVEAEDLGIYYCFQGSHVPPTFGGGTKLEIK
notes: FITC-labeled in the flow cytometry assay; also called hybridoma CCTCC NO: 202120
Ka [1]: 2.02e+09 M⁻¹
antibody dilution factor corresponding to 1/2 OD value [2]: 25600 fold dilution (of 1.9 mg/mL antibody)
